From article PMC4841471 (Nature, 2015) come the findings set out here.

This series deals with the molecule itself. The series can be described thus: crystal structure.

B1: Two-pore channel TPC1 from Arabidopsis thaliana (AtTPC1) (natural protein, UniProt Q94KI8 1-733, looked up)
chain: MEDPLIGRDSLGGGGTDRVRRSEAITHGTPFQKAAALVDLAEDGIGLPVEILDQSSFGESARYYFIFTRLDLIWSLNYFALLFLNFFEQPLWCEKNPKPSCKDRDYYYLGELPYLTNAESIIYEVITLAILLVHTFFPISYEGSRIFWTSRLNLVKVACVVILFVDVLVDFLYLSPLAFDFLPFRIAPYVRVIIFILSIRELRDTLVLLSGMLGTYLNILALWMLFLLFASWIAFVMFEDTQQGLTVFTSYGATLYQMFILFTTSNNPDVWIPAYKSSRWSSVFFVLYVLIGVYFVTNLILAVVYDSFKEQLAKQVSGMDQMKRRMLEKAFGLIDSDKNGEIDKNQCIKLFEQLTNYRTLPKISKEEFGLIFDELDDTRDFKINKDEFADLCQAIALRFQKEEVPSLFEHFPQIYHSALSQQLRAFVRSPNFGYAISFILIINFIAVVVETTLDIEESSAQKPWQVAEFVFGWIYVLEMALKIYTYGFENYWREGANRFDFLVTWVIVIGETATFITPDENTFFSNGEWIRYLLLARMLRLIRLLMNVQRYRAFIATFITLIPSLMPYLGTIFCVLCIYCSIGVQVFGGLVNAGNKKLFETELAEDDYLLFNFNDYPNGMVTLFNLLVMGNWQVWMESYKDLTGTWWSITYFVSFYVITILLLLNLVVAFVLEAFFTELDLEEEEKCQGQDSQEKRNRRRSAGSKSRSQRVDTLLHHMLGDELSKPECSTSDT
By stoichiometry N is commonly meant the number of molecules, sites or subunits per partner or assembly. On to B1, for which the “stoichiometry N” value amounted to 2.
